The record followed here is patent publication US20230235040A1 (ALMIRALL S A, published 2023).

Test [1] concerns the target T1, hu-IL-36α (human IL-36α, N-terminally truncated active form K6-F158) (human, UniProt Q9UHA7 6-158).
T1 sequence: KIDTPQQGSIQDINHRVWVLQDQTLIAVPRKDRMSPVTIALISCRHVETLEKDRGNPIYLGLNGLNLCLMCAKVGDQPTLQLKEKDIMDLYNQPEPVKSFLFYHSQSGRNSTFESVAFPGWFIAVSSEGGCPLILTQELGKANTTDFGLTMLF
As to the kind of experiment: cell-based or functional assay.

The target in test [2] is T2, hu-IL-36γ (human IL-36γ, N-terminally truncated active form S18-D169) (human, UniProt Q9NZH8 18-169).
T2 sequence: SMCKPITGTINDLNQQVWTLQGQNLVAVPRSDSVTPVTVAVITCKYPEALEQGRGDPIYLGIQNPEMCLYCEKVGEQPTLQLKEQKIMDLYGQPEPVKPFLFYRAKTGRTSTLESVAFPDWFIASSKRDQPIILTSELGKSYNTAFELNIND
As to the kind of experiment: cell-based or functional assay.

Test [3] deals with T1, hu-IL-36α (human IL-36α, N-terminally …). As to the kind of experiment: ELISA, yeast Fab supernatant, anti-Fab-HRP.
Test [4] addresses T2, hu-IL-36γ (human IL-36γ, N-terminally …). As to the kind of experiment: ELISA, yeast Fab supernatant, anti-Fab-HRP.
In test [5] the target is T3, cy-IL-36α (cynomolgus monkey IL-36α, K6-F158) (cynomolgus monkey, UniProt Q9UHA7 14-158 (human entry)).
T3 construct: Purification tag cleaved off
T3 chain: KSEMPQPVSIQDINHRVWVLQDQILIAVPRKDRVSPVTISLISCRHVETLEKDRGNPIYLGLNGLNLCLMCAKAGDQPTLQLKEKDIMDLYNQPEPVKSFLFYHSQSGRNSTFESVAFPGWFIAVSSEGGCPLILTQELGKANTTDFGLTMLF
As to the kind of experiment: ELISA on coated cy- and hu-IL-36α, yeast Fab supernatant; ratio of OD450. The procedure:
(§1) Cell supernatants from yeast clones of interest were tested for binding to human IL-36 by ELISA as described above. To compare the binding of these supernatants to human and cynomolgus monkey IL-36, IL-36 proteins were coated at 2.5 μg/mL on 96-well Nunc MaxiSorp plates (Thermo Fisher) and the plates blocked with 5% goat serum in PBS. Yeast supernatants were diluted 1:1 with PBST containing 1% w/v BSA and added to the ELISA plates for 1-1.5 hours with agitation. Bound Fab was detected by incubating the plates with F(ab′)2-HRP (Jackson ImmunoResearch). The ELISAs were developed for 3-10 minutes by addition of 50 μL/well of tetramethylbenzidine (TMB) microwell peroxidase substrate (Scytek Laboratories, Inc., Logan, Utah, USA) and enzymatic color development was stopped by acidification with 50 µL/well of 2 N H₂SO₄ (Sigma-Aldrich Corporation, St. Louis, Mo., USA). The optical density of the samples at a wavelength of 450 nm (OD450) was analyzed with a SpectraMax i3X plate reader (Molecular Devices LLC, San Jose, Calif., USA). To estimate the relative affinity of each clone for cynomolgus monkey IL-36 and human IL-36 in this assay, a ratio of OD450 (OD450_cyIL-36/OD450_huIL-36) was calculated for each clone and IL-36 cytokine.

Test [6] concerns the target T4, cy-IL-36γ (cynomolgus monkey IL-36γ, S18-K168) (cynomolgus monkey, UniProt Q9NZH8 18-167 (human entry)).
T4 construct: Purification tag cleaved off
T4 chain: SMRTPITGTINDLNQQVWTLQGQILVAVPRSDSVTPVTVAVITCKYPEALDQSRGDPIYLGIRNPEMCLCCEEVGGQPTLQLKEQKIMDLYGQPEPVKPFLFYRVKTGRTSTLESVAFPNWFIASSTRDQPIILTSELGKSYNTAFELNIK
As to the kind of experiment: ELISA on coated cy- and hu-IL-36γ, yeast Fab supernatant; ratio of OD450. The procedure: as §1

The target of test [7] is T1, hu-IL-36α (human IL-36α, N-terminally …). As to the kind of experiment: cell-based or functional assay. This is another data set of the same source.
In test [8] the target is T2, hu-IL-36γ (human IL-36γ, N-terminally …). As to the kind of experiment: cell-based or functional assay. This is another data set of the same source.
Test [9] deals with T1, hu-IL-36α (human IL-36α, N-terminally …). As to the kind of experiment: phage competition ELISA: Fab on phage, soluble hu-IL-36α titrated against coated hu-IL-36α. The procedure: (§2) Selected phages with top binding signal were purified to perform phage competition ELISA. The optimal phage concentration was incubated with serially-diluted human IL-36α or human IL-36γ in ELISA buffer in NUNC F plate for two hours. 80 μL of the mixture was transferred to human IL-36α or human IL-36γ coated wells for 15 min to capture unbound phage. The plate was washed with wash buffer (0.05% TWEEN®20 in PBS), and HRP-conjugated anti-M13 antibody (Sino biological, Cat #11973-MM05-H-50) was added in ELISA buffer for 30 min. The plates were washed and developed as described above. The absorbance at 450 nm was plotted as a function of antigen concentration in solution to determine phage IC50.

Test [10] concerns the target T2, hu-IL-36γ (human IL-36γ, N-terminally …). As to the kind of experiment: phage competition ELISA: Fab on phage, soluble hu-IL-36γ titrated against coated hu-IL-36γ. How it is done:
as §2

B1: mAb1.0 Fab (yeast clone culture supernatant) (Fab, V domains shown)
VH: QVQLVESGGGVVQPGRSLRLSCAASGFSFSAYAMHWVRQAPGKGLEWVAVISYDGTNEYYADSVKGRFTISRDNSKNTLYLQMNSLRAEDTAVYYCARGIRIFTSYFDSWGQGTLVTVSS
VL: QSVLTQPPSVSGAPGQRVTISCTGSSSNIGAHYDVHWYQQLPGTAPKLLIYSNNNRPSGVPDRFSGSKSGTSASLAITGLQAEDEADYYCQSYDYSLRGYVFGGGTKLTVL
notes: Human Fab secreted by the yeast clone, not purified
Regarding B1, the entries for the “% Inhibition, HEK-Blue IL-36R SEAP reporter assay” value in [1] and in test [2] were 70% and 31%, respectively. Moreover, the “ELISA OD450” value in test [3] is 0.94 OD450; in test [4] it was 2.43 OD450. The “ELISA OD450cyIL-36/OD450hu-IL-36” value in [5] stood at 0.6 ratio; in [6], 1.3 ratio.

B2: mAb5.0 recombinant human IgG1 (antibody, V domains shown)
VH: EVQLLESGGGLVQPGGSLRLSCAASGFTFSTYAMSWVRQAPGKGLEWVSGISGGSGYTYYADSVKGRFTISRDNSKNTLYLQMNSLRAEDTAVYYCARVVTYRDPPASFDYWGQGTLVTVSS
VL: QSVLTQPPSVSGAPGQRVTISCTGSSSNIGAHYDVHWYQQLPGTAPKLLIYGNDNRPSGVPDRFSGSKSGTSASLAITGLQAEDEADYYCQSYDYSLKAYVFGGGTKLTVL
For B2, the “IC50, HEK-Blue IL-36R SEAP reporter assay” value was 95 nM in [7] and 142 nM in test [8].

B3: mAb4.0 recombinant human IgG1 (antibody, V domains shown)
VH: QLQLQESGPGLVKPSETLSLTCTVSGGSIGSRSYYWGWIRQPPGKGLEWIGSIHYSGTTYYNPSLKSRVTISVDTSKNQFSLKLSSVTAADTAVYYCARVAPSYPRVFDYWGQGTLVTVSS
VL: QSVLTQPPSVSGAPGQRVTISCTGSSSNIGAGYDVHWYQQLPGTAPKLLIYGNRNRPSGVPDRFSGSKSGTSASLAITGLQAEDEADYYCQSYDYSLRVYVFGGGTKLTVL
In the case of B3, the “IC50, HEK-Blue IL-36R SEAP reporter assay” value is 16 nM in test [7] and 52 nM in [8].

B4: mAb1.0 recombinant human IgG1 (antibody, V domains shown)
VH: QVQLVESGGGVVQPGRSLRLSCAASGFSFSAYAMHWVRQAPGKGLEWVAVISYDGTNEYYADSVKGRFTISRDNSKNTLYLQMNSLRAEDTAVYYCARGIRIFTSYFDSWGQGTLVTVSS
VL: QSVLTQPPSVSGAPGQRVTISCTGSSSNIGAHYDVHWYQQLPGTAPKLLIYSNNNRPSGVPDRFSGSKSGTSASLAITGLQAEDEADYYCQSYDYSLRGYVFGGGTKLTVL
In the case of B4, the “IC50, HEK-Blue IL-36R SEAP reporter assay” value in test [7] turned out to be 43 nM; in test [8], 5.3 nM.

B5: mAb3.0 recombinant human IgG1 (antibody, V domains shown)
VH: QLQLQESGPGLVKPSETLSLTCTVSGGSISSTSYYWGWIRQPPGKGLEWIGSIHYSGNTYYNPSLKSRVTISVDTSKNQFSLKLSSVTAADTAVYYCARVHYGGYIPRRFDHWGQGTLVTVSS
VL: QSVLTQPPSVSGAPGQRVTISCTGSSSNIGAGYDVHWYQQLPGTAPKLLIYGNTNRPSGVPDRFSGSKSGTSASLAITGLQAEDEADYYCQSYDYSLRGYVFGGGTKLTVL
Consider B5, for which the “IC50, HEK-Blue IL-36R SEAP reporter assay” value in test [7] turned out to be 90 nM; in test [8], 30 nM.

B6: mAb2.6 Fab (phage-displayed) (Fab, V domains shown)
VH: ELQLQESGPGLVKPSETLSLTCTVSGGSISTSSYHWGWIRQPPGKGLEWIGSIYYTGNTYYMPSLKSRVTISVDTSKNQFSLKLSSVTAADTAVYYCVRVRYGVGVPRYFDPWGQGTLVTVSS
VL: ESVLTQPPSVSGAPGQRVTISCTGSSSNIGAHYDVHWYQQLPGTAPKLLIYGNDNRPSGVPDRFSGSKSGTSASLAITGLQAEDEADYYCQSYDYSLSGYVFGGGTKLTVL
Regarding B6, the values for the IC50 in test [9] and in test [10] were 1.62 nM and 1.99 nM, respectively.

B7: mAb2.7 Fab (phage-displayed) (Fab, V domains shown)
VH: ELQLQESGPGLVKPSETLSLTCTVSGGSISRSSYYWGWIRQPPGKGLEWIGSIYYTGNTYYWPSLKSRVTISVDTSKNQFSLKLSSVTAADTAVYYCTRVRYGVGVPRYFDPWGQGTLVTVSS
VL: ESVLTQPPSVSGAPGQRVTISCTGSSSNIGAHYDVHWYQQLPGTAPKLLIYGNDNRPSGVPDRFSGSKSGTSASLAITGLQAEDEADYYCQSYDYSLSGYVFGGGTKLTVL
As to B7, the half-inhibitory concentration (IC50) in test [9] worked out at 1.2 nM; in test [10], 1.53 nM.

B8: mAb2.4 Fab (phage-displayed) (Fab, V domains shown)
VH: ELQLQESGPGLVKPSETLSLTCTVSGGSISNSSYYWGWIRQPPGKGLEWIGSIYYTGNTYYLPSLKSRVTISVDTSKNQFSLKLSSVTAADTAVYYCARVRYGVGVPRYFDPWGQGTLVTVSS
VL: ESVLTQPPSVSGAPGQRVTISCTGSSSNIGAHYDVHWYQQLPGTAPKLLIYGNDNRPSGVPDRFSGSKSGTSASLAITGLQAEDEADYYCQSYDYSLSGYVFGGGTKLTVL
As to B8, the values for the IC50 in [9] and in test [10] were 0.68 nM and 1.52 nM, respectively.

B9: mAb2.5 Fab (phage-displayed) (Fab, V domains shown)
VH: ELQLQESGPGLVKPSETLSLTCTVSGGSISESSYYWGWIRQPPGKGLEWIGSIYYTGNTYYLPSLKSRVTISVDTSKNQFSLKLSSVTAADTAVYYCARVRYGVGVPRYFDPWGQGTLVTVSS
VL: ESVLTQPPSVSGAPGQRVTISCTGSSSNIGAHYDVHWYQQLPGTAPKLLIYGNDNRPSGVPDRFSGSKSGTSASLAITGLQAEDEADYYCQSYDYSLSGYVFGGGTKLTVL
On to B9, for which the results for the IC50 in [9] and in [10] were 0.77 nM and 1.88 nM, respectively.

B10: mAb2.2 Fab (phage-displayed) (Fab, V domains shown)
VH: ELQLQESGPGLVKPSETLSLTCTVSGGSISESSYYWGWIRQPPGKGLEWIGSIYYTGNTYYNPSLKSRVTISVDTSKNQFSLKLSSVTAADTAVYYCAGVRYGVGVPRYFDPWGQGTLVTVSS
VL: ESVLTQPPSVSGAPGQRVTISCTGSSSNIGAHYDVHWYQQLPGTAPKLLIYGNDNRPSGVPDRFSGSKSGTSASLAITGLQAEDEADYYCQSYDYSLSGYVFGGGTKLTVL
For B10, the IC50 in [9] was determined as 0.75 nM; in test [10], 3.79 nM.

B11: mAb2.3 Fab (phage-displayed) (Fab, V domains shown)
VH: ELQLQESGPGLVKPSETLSLTCTVSGGSISTSSDYWGWIRQPPGKGLEWIGSIYYTGNTYYLPSLKSRVTISVDTSKNQFSLKLSSVTAADTAVYYCSRVRYGVGVPRYFDPWGQGTLVTVSS
VL: ESVLTQPPSVSGAPGQRVTISCTGSSSNIGAHYDVHWYQQLPGTAPKLLIYGNDNRPSGVPDRFSGSKSGTSASLAITGLQAEDEADYYCQSYDYSLSGYVFGGGTKLTVL
Regarding B11, the figures for the 50% inhibitory concentration (IC50) in [9] and in test [10] were 0.82 nM and 2.39 nM, respectively.
